This is an account of results in paper PMC10769282.

The target of this assay is SARS-CoV-2 Spike, BA.1 variant of concern, 21-amino-acid truncated form (SARS-CoV-2 (BA.1)) (UniProt P0DTC2).
SA58 VH T53L A61S (antibody): the IC50, neutralisation of BA.1 Spike pseudovirus is 12 µg/mL. For the substance SA58 VH T53L A61S, VL N95V (antibody), the IC50, neutralisation of BA.1 Spike pseudovirus is 11 µg/mL. The substance SA58 VL S54T (antibody) showed an IC50, neutralisation of BA.1 Spike pseudovirus of 12 µg/mL.
